Results on 120 sequences are retold here after the supplement of paper PMC10126150.

± gives the standard deviation of the averaged measurements.

This series concerns ATP. Put plainly: switch fluorescence ratio, 500 uM ATP over buffer (Cy3 cluster intensity, sum of 5 cycles each) (fold (ratio)); higher = stronger signal-on switching upon ATP binding; sequences stand for … in TCGTCGGCAGCGTCAGATGTGTATAAGAGACAGTTTTTTTTTTTTTTTTTTTTTTTTT…TC. The conditions noted are these: aptamer strand: ATP DNA aptamer (quencher-CACCTGGGGGAGTATTGCGGAGGAAGG + anchor), 100 nM annealed; ATP concentration: 500 uM. In a few lines:
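Cy3-labelled switching-strand clusters on a modified Illumina MiSeq flow-cell were annealed to 100 nM quencher-labelled ATP aptamer and imaged first in selection buffer, then after 15 min with 500 uM ATP at 22 °C. NaOH stripping and re-annealing separated each of five buffer/ATP cycles, and clusters outside 100-1000 RFU were excluded. The fluorescence ratio sums target-cycle Cy3 intensity over buffer-cycle Cy3 intensity per cluster and averages it per switch-domain sequence.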
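Note: ATP exposure 15 min at 22 °C before imaging.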

ACTGGTTCGT: the switch fluorescence ratio turned out to be 0.998 ± 0.012. With GTTGGCGACG, the switch fluorescence ratio stood at 0.946 ± 0.012.

On to GGGTAGACTT, for which the switch fluorescence ratio came out at 0.996 ± 0.013. On to AGGGTATTTG, for which the switch fluorescence ratio stood at 0.987 ± 0.011. AGTTTGAAAG: the switch fluorescence ratio was found to be 1.01 ± 0.017. Regarding TATCATATTA, the switch fluorescence ratio amounted to 1 ± 0.037. The result for TCTGCTAAGG reads 0.98406 ± 0.00079; that for AACGGGTGCG, 0.995 ± 0.02.

As to CGTCCGAGGT, the switch fluorescence ratio was found to be 1.3 ± 0.048. For the sequence CAGTTGGGGG, the switch fluorescence ratio was 1 ± 0.031. With GGCCAAGGGA, the switch fluorescence ratio stood at 1.016 ± 0.0069. With ATGTTATGAA, the switch fluorescence ratio amounted to 1.06 ± 0.11.

On to CAGTGATCTT, for which the switch fluorescence ratio was found to be 0.97521 ± 0.00076. On to TAAAACGGGG, for which the switch fluorescence ratio was 1.02 ± 0.074. Regarding GGTCGACTTT, the switch fluorescence ratio turned out to be 1.0094 ± 0.00072.

As for CTGTTGAAAA, the switch fluorescence ratio came to 1.07 ± 0.022. Turning to ATTTTGGGTG, the switch fluorescence ratio stood at 1.08 ± 0.049. On to CTGAAGTCTG, for which the switch fluorescence ratio is 1.019 ± 0.0084.

As to AAATTAAATC, the switch fluorescence ratio is 0.993 ± 0.043. For CCGTTTTTAT, the switch fluorescence ratio is 1.01 ± 0.018. Take TTAAAGTCCC: the switch fluorescence ratio amounted to 0.993 ± 0.033. As to TGCAGGGCGG, the switch fluorescence ratio was 0.9806 ± 0.0017. Under GGCCTGGACG stands 1.05 ± 0.015; under AAACTATGTG, 1.02 ± 0.037.

On to TGGTGACTGA, for which the switch fluorescence ratio is 0.981 ± 0.011.

On to GGTATTATTG, for which the switch fluorescence ratio was 0.998 ± 0.023. Turning to GGTAGTGGCT, the switch fluorescence ratio turned out to be 0.993 ± 0.01. As for CAATATGCAG, the switch fluorescence ratio was 0.962 ± 0.012. For the sequence TTTTGTTAAT, the switch fluorescence ratio is 1.01 ± 0.035.

GGACGGGTGC: the switch fluorescence ratio came to 1.1 ± 0.088. For TGGGGAGGGT, the switch fluorescence ratio came out at 1.01 ± 0.035. In the case of TTTACGAAAA, the switch fluorescence ratio was determined as 1.12 ± 0.046. In the case of GAGGAAGGGG, the switch fluorescence ratio was 1 ± 0.016. Regarding GAGTAAGCGG, the switch fluorescence ratio worked out at 1.01 ± 0.048.

With AAATGTTGAT, the switch fluorescence ratio was determined as 1.03 ± 0.019. Under GAGCTAACGG stands 1.011 ± 0.0073; under ATTTAAAATG, 0.994 ± 0.033; under TCGGAGATTT, 0.97302 ± 0.00083.

With AAGTTTTGGC, the switch fluorescence ratio was determined as 1 ± 0.035. As for TTATTAAGTG, the switch fluorescence ratio turned out to be 1 ± 0.017.

Regarding TCACATGTGG, the switch fluorescence ratio worked out at 1.03 ± 0.044.

For CTCGGGGTTG, the switch fluorescence ratio amounted to 1.022 ± 0.008.

With ATTTGTTGTG, the switch fluorescence ratio was 1.01 ± 0.041. Consider TCCTGAGGAT, for which the switch fluorescence ratio stood at 1 ± 0.058. In the case of ATCAAAGGGA, the switch fluorescence ratio amounted to 0.976 ± 0.048. With AAGTAGTCGA, the switch fluorescence ratio turned out to be 0.9838 ± 0.0041. Turning to CACCGGAAGG, the switch fluorescence ratio amounted to 1.02 ± 0.024.

On to GTTGTGTCGG, for which the switch fluorescence ratio was determined as 1.01 ± 0.019. Turning to ACGTTATGTG, the switch fluorescence ratio was 1.0491 ± 0.00035. Under CAAGTCTGG stands 0.985 ± 0.032; under GATTAACCTA, 1.013 ± 0.003; under TTAAAATTAA, 0.975 ± 0.021. The result for CCGGATACGT reads 1.39 ± 0.086; that for TTTGTGATG, 0.959 ± 0.027.

As to AGTATATATT, the switch fluorescence ratio worked out at 1.003 ± 0.0035. On to AGCTTAGGGG, for which the switch fluorescence ratio worked out at 1.07 ± 0.11.

Turning to GGAAGGTGGG, the switch fluorescence ratio turned out to be 1.15 ± 0.25.

With CGCGGGTTGC, the switch fluorescence ratio amounted to 1.06 ± 0.042.

Take GATATCAGGG: the switch fluorescence ratio came to 0.978 ± 0.037.

For the sequence AAACGAGGTC, the switch fluorescence ratio was 1.01 ± 0.032. Consider TGGTCAGAGT, for which the switch fluorescence ratio worked out at 1.01 ± 0.023. As for GTCATAGCGT, the switch fluorescence ratio was determined as 0.977 ± 0.016. CGAACTCGGA: the switch fluorescence ratio was 1.012 ± 0.0076. Under TTTGCTGGTC stands 1.05 ± 0.025; under GGCCCGGGGA, 1.02 ± 0.042; under CTATGTTGGT, 0.9562 ± 0.0062. The result for TTCGTATATC reads 1.7 ± 0.93. With CTTATAGTGC, the switch fluorescence ratio came to 0.974 ± 0.0023. Regarding ATATAAAAAG, the switch fluorescence ratio worked out at 1.02 ± 0.061.

As to TTTTGATTTG, the switch fluorescence ratio was found to be 1 ± 0.034. As to ACGTGGTTGA, the switch fluorescence ratio is 1.05 ± 0.026. GGCTACTGGA: the switch fluorescence ratio is 1.03 ± 0.095.

For AATGGGCAGC, the switch fluorescence ratio came out at 1.02 ± 0.013. On to GTGTGGGGCT, for which the switch fluorescence ratio came out at 1 ± 0.019. On to TAGGAGGCTA, for which the switch fluorescence ratio was found to be 0.976 ± 0.035. Turning to TTGGACTGGT, the switch fluorescence ratio turned out to be 1.04 ± 0.039.

In the case of TTTCTTCGCG, the switch fluorescence ratio worked out at 1.027 ± 0.0032. Under TTTTTCCAAA stands 1 ± 0.041; under CGAGGGGA, 1.018 ± 0.0082.

With GATGGGCCGG, the switch fluorescence ratio is 1 ± 0.039. With GAGGGTATCG, the switch fluorescence ratio is 0.984 ± 0.039. As to CGATTTTTTC, the switch fluorescence ratio came to 0.9774 ± 0.003. CTTAGAGTTG: the switch fluorescence ratio was 0.983 ± 0.016. On to GGTTTCCAAT, for which the switch fluorescence ratio is 1 ± 0.02. As for CTTCTATAAC, the switch fluorescence ratio amounted to 1.07 ± 0.02.

As to GCATATTAGG, the switch fluorescence ratio worked out at 0.999 ± 0.03.

Regarding AGAACAGGTG, the switch fluorescence ratio was found to be 3.18 ± 0.27.

On to GAGTATGCAT, for which the switch fluorescence ratio was 0.984 ± 0.023. Take GTTTGTGTCA: the switch fluorescence ratio came to 0.993 ± 0.052. With ACTTTTTGGC, the switch fluorescence ratio was found to be 0.975 ± 0.022. Turning to AATTCGAGAT, the switch fluorescence ratio is 1.01 ± 0.034. As to TTTTCCGGGC, the switch fluorescence ratio stood at 1.1 ± 0.014. For TTTATAGGTG, the switch fluorescence ratio is 1.14 ± 0.089. Regarding TGGGAACCAA, the switch fluorescence ratio came to 1.02 ± 0.022.

Consider TTGTTATTTT, for which the switch fluorescence ratio was determined as 1 ± 0.03. As to GGGGCAGACT, the switch fluorescence ratio is 1.03 ± 0.018. Regarding TTTTTTAAAT, the switch fluorescence ratio stood at 0.987 ± 0.022. Consider AATGGCTGGG, for which the switch fluorescence ratio came to 0.999 ± 0.043. Turning to GGTCGCATTC, the switch fluorescence ratio was found to be 1.05 ± 0.047. Regarding ATTGGGGCTT, the switch fluorescence ratio came to 1.01 ± 0.018. As for ACGAAGGGGG, the switch fluorescence ratio stood at 1.14 ± 0.24.

For ACGGCACTCT, the switch fluorescence ratio was determined as 1.55 ± 0.0028.

Take AGGGTCATCT: the switch fluorescence ratio turned out to be 1.012 ± 0.002. Turning to GGTTGTGTTA, the switch fluorescence ratio was 0.998 ± 0.013. Consider ATGTCGGTCG, for which the switch fluorescence ratio turned out to be 1.02 ± 0.012.

Take CTTCTGGGGC: the switch fluorescence ratio was found to be 1.04 ± 0.055.

Turning to TCCCGTATCC, the switch fluorescence ratio stood at 1.07 ± 0.036. Take AATATCTGTG: the switch fluorescence ratio was determined as 1.01 ± 0.016. Take TGTTAATAGC: the switch fluorescence ratio is 1.03 ± 0.032. For GTTTAAATCC, the switch fluorescence ratio was 0.989 ± 0.05. With ATTAAAATAC, the switch fluorescence ratio came to 1.09 ± 0.11. On to CAGGATTTTT, for which the switch fluorescence ratio came to 0.993 ± 0.042. On to CAGATAGGCT, for which the switch fluorescence ratio was 1.04 ± 0.019. Turning to TGGGGGCCGG, the switch fluorescence ratio amounted to 1.02 ± 0.039. Turning to TATAACACTT, the switch fluorescence ratio was found to be 1.05 ± 0.024.

Turning to AAAACGAATT, the switch fluorescence ratio is 1.01 ± 0.044. As for GGTGAGTTGG, the switch fluorescence ratio was found to be 0.977 ± 0.014.

CAGAGGGGGG: the switch fluorescence ratio was found to be 0.994 ± 0.019. Turning to TATATGGCAT, the switch fluorescence ratio turned out to be 1.05 ± 0.085. On to ACATGATGTT, for which the switch fluorescence ratio worked out at 1 ± 0.028.
